Our source for the stoichiometry N values is publication doi:10.1101/2023.03.13.532361.

The test has as its target SLA dehydrogenase RlGabD from Rhizobium leguminosarum SRDI565 (Rhizobium leguminosarum SRDI565). Briefly: SEC-MALS. A general note: Size exclusion chromatography separates by hydrodynamic size, large species first.

In the case of “SLA dehydrogenase RlGabD from Rhizobium leguminosarum SRDI565 (enzyme)”, the stoichiometry N (in general, a count of units in the complex or per binding partner) was 4.
